The source of these data is EP4703383A1.

Experiment in all cases: ELISA, coated antigen 1 ug/mL, antibody 10 ug/mL
For orientation: In an ELISA, binding on a coated surface is turned into a signal by an enzyme label.

For assay [1], the target named is extracellular segment of human PRLR protein with avi-(his)6 tag (hPRLR-ECD-avi-his) (human) (UniProt P16471).
In assay [2] the target is extracellular segment of the PRLR protein of cynomolgus monkey with avi-(his)6 tag (cynoPRLR-ECD-avi-his) (cynomolgus monkey).
extracellular segment of the PRLR protein of cynomolgus monkey with avi-(his)6 tag (cynoPRLR-ECD-avi-his) (cynomolgus monkey), sequence (chain, as listed by the source limits assumed): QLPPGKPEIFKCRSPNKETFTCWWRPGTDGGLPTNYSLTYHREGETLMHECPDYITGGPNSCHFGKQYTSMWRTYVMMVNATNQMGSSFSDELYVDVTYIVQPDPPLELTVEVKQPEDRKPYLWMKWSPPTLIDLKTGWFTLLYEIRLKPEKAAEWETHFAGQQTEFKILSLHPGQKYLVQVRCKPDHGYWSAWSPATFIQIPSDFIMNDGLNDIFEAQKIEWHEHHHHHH
The target in assay [3] is murine PRLR extracellular domain (mouse) (UniProt Q08501).
murine PRLR extracellular domain (mouse), sequence (Q08501 20-229): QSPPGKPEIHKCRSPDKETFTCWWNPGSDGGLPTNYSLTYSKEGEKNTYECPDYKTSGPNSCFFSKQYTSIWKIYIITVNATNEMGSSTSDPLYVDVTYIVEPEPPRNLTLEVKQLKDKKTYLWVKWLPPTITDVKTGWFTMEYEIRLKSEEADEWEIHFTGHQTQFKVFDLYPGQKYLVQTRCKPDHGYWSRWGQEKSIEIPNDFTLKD

extracellular segment of human PRLR protein with avi-(his)6 tag (hPRLR-ECD-avi-his) (human), sequence (P16471 other isoform, or with tags, fused parts or gaps): as the sequence (chain, as listed by the source limits assumed) above, with V76I, T110A, M125I, T158I, I207T counted along it

B1: HP-PR01C02 (antibody, V domains shown)
VH: DVHLVESGPGLVKPSQSLSLTCTVTGYSITSDYAWNWIRQFPGNKLEWMGYISYSGSTGYSPSLKSRVSITRDTSKNQFFLQLNSVTTEDTATYFCARNNWAFDFWGQGTTLTVSS
VL: DIVLTQSPAIMSASPGEKVTMTCSASSSVNYMHWYQQKSGTSPKRWIYDTSKLASGVPARFSGSGSGTSYSLTISSMEAEDAATYYCQQWSSNPLTFGAGTKLELK
Take B1: the absorbance at 450nm in assay [1] turned out to be 1.45; in assay [2] it was 1.52; in assay [3] it was 0.273.

B2: HP-PR01B01 (antibody, V domains shown)
VH: EVHLVESGPDLVKPSQSLSLTCTVTGYSITSGYNWHWIRQFPGNKLEWMGYIHYSGSTKYDPSLKSRISFTRDTSRNQFFLQLNSVTTEDRATYYCARSEAGGYSWFAYWGQGTLVTVSA
VL: DIVMTQSPAIMSASPGEKVTMACSASSSVNYMHWYQQKSGTSPKRWIYDTSKLASGVPARFSGSGSGTSYSLTISSMEAEDAATYYCQQWSSNPLTFGAGTKLELK
For the molecule B2, the absorbance at 450nm was determined as 0.638 in assay [1] and 0.161 in assay [3].

B3: H-PR-B03 (antibody, V domains shown)
VH: QVQLKESGPGLVAPSQSLSITCTVSGFSLTGFGVNWFRQPPGRGLEWLGMIWGDGSTDYNSALKSRLSISKDNSKSQVFLKMNSLQTDDTARYYCARVLYYYGGNSFAYWGQGTLVTVSA
VL: DVLMTQTPLSLPVSLGDQASISCRSSQSIVHSNGNTYLEWYLQKPGQSPKLLIYKVSSRFSGVPDRFSGSGSGTDFTLKISRVEAEDLGVYYCFQGSHVPYTFGGGTKLEIK
On to B3, for which the values for the absorbance at 450nm in assay [1], in assay [2] and in assay [3] were 4, 3.75 and 0.382, respectively.

B4: HP-PR02E11 (antibody, V domains shown)
VH: QVQLQQSGPGLVAPSQSLSITCTVSGFSLTSYGVNWVRQPPGKGLEWLGIIGAGGSTNYNSALMSRLSISKDNSKSQVFLKMNSLQTDDTAMYYCARSLYYYGSSSFAYWGQGTLVTVSA
VL: DIVMTQTPLSLPVSLGDQASISCRSSQSIVHSNGNTYLEWYLQKPGQSPKLLIYKVSNRFSGVPDRFSGSGSGTDFTLKISRVEAEDLGVYYCFQGSHVPWTFGGGTKLELK
For the molecule B4, the absorbance at 450nm in assay [1] came to 3.91; in assay [2], 3.65; in assay [3], 3.44.

B5: H-PR-B06 (antibody, V domains shown)
VH: DVKLVESGGGLVKPGGSLKLACAASGFTFSSYTMSWVRQTPEKRLEWVATISSGGSYTYYPDSVKGRFTISRDNAKNTLYLQLSSLKSEDTAMYYCTRDRYYSTTPDWYFDVWGAGTTVTVSS
VL: DIVLTQSPATLSVTPGDSVSLSCRATQIIFNNLHWYQQKSHESPRLLITYTSQSISGIPSRFSGSGSGTDFTLTINSVETEDFGMYFCQQSNTWPRTFGGGTKLEIK
Take B5: the absorbance at 450nm in assay [1] came out at 3.94; in assay [2] it was 0.435; in assay [3], 0.334.

B6: HP-PR02H02 (antibody, V domains shown)
VH: EVMLVESGGGLVKPGGSLKLACAASGFTFSSYTMSWVRQTPEKRLEWVATISSGGSYTYYPDSVKGRFTISRDNAKNTLYLQLSSLKSEDTAMYYCTRDRYYSTTPDWYFDVWGAGTTLTVSS
VL: DIVITQSPATLSVTPGDSVSLSCRATQIIFNNLHWYQQKSHESPRLLITYTSQSISGIPSRFSGSGSGTDFTLTINSVETEDFGMYFCQQSNTWPRTFGGGTKLEIK
On to B6, for which the absorbance at 450nm in assay [1] was 3.12; in assay [3], 0.223.

B7: P-PR-C07H (antibody, V domains shown)
VH: EVQLQQSGAELVRPGTSVQISCKASGYTFTNNWLAWIKQRPGHGLEWIGDIYPGGVYTNYNEKFKGKATLTADTSSSTAYMQLSSLTSEDSAVYFCYYGDFWSAYWGQGTLVTVSA
VL: DIVMTQAAPSVPVTPGESVSISCRSSKSLLHSNGNTYLYWFLQRPGQSPQLLIYRMSNLASGVPDRFSGSGSGTAFTLRISRVEAEDVGVYYCMQHLEYPLTFGAGTKLELK
For B7, the absorbance at 450nm in assay [2] is 2.16; in assay [3], 0.102.

B8: P-PR-D06H (antibody, V domains shown)
VH: QVQLQQPGSELVRPGASVKLSCKASGFTFTTFWVHWVKQRPGQGLEWIGNISPGSTSTNYNEKFKNKASLTVDTFSNTAYMQLSSLTSEDSAVYYCIRHSGNYFNAMDYWGQGTTLTVSS
VL: DIVMTQAAPSVPVTPGESVTISCRSSKSLLHSNGKTYLYWFLQRPGQSPQLLIYWMSNLASGVPDRFSGSGSGTAFTLRISRVEAEDVGVYYCMQHLEYPFTFGVGTKLELK
For the molecule B8, the absorbance at 450nm was 2.51 in assay [2] and 2.52 in assay [3].

B9: P-PR-G02W (antibody, V domains shown)
VH: QVQLQQPGSELVRPGASVKLSCKASGFTFTTYWVHWVKQRPGQGLEWIGNISPGSGSTNYDEKFKSKASLTVDTFSNTAYMQLSSLTSEDSAVYYCIRHSGNYFNAMDYWGQGTTLTVSS
VL: DIVMTQAAPSVPVTPGESVSISCRSSKSLLHSNGNTYLYWFLQRPGQSPQLLIYRMSNLASGVPDRFSGSGSGTAFTLRISRVEAEDVGVYYCMQHLEYPLTFGAGTKLELK
On to B9, for which the absorbance at 450nm in assay [1] amounted to 2.25; in assay [2], 2.51; in assay [3], 0.09.

B10: P-PR-C04W (antibody, V domains shown)
VH: QVQLQQPGSELVRPGASVKLSCKASGFTFTTYWVHWVKQRPGQGLEWIGNISPGSGSTNYDEKFKSKASLTVDTFSNTAYMQLSSLTSEDSAVYYCIRHSGNYFNAMDYWGQGTTVTVSS
VL: DIVMTQAAPSVPVTPGESVSISCRSSKSLLHSNGNTYLYWFLQRPGQSPQLLIYRMSNLASGVPDRFSGSGSGTAFTLRISRVEAEDVGVYYCMQHLEYPLTFGAGTKLELK
On to B10, for which the absorbance at 450nm in assay [1] worked out at 2.16; in assay [2], 2.25; in assay [3], 0.09.

B11: P-PR-C02H (antibody, V domains shown)
VH: QVQLQQPGSELVRPGASVRLSCKASGFTFTTYWVHWVKQRPGQGLEWIGNISPGSGSTNYDEKFKSKASLTVDTFSNTAYMQLSSLTSEDSAVYYCIRHSGNYFNAMDYWGQGTSVTVSS
VL: DIVMTQATPSVPVAPGESVSISCRSSKSLLHTNGYTYLYWFLQRPGQSPQLLIYRMSNLASGVPDRFSGSGSGTAFTLRISRVEAEDVGVYYCMQHLEYPLTFGAGTKLELK
For B11, the absorbance at 450nm in assay [2] is 2.3; in assay [3] it was 0.115.

B12: P-PR-C08H (antibody, V domains shown)
VH: QVQLQQPGSELVRPGASVKLSCKASGFTFTTYWVHWVKQRPGQGLEWIGNISPGSGSTNYDEKFKSKASLTVDTFSNTAYMQLSSLTSEDSAVYYCIRHSGNYFNAMDYWGQGTTVTVSS
VL: DIVMTQAAPSVPVTPGESVSISCRSSKSLLHSNGNTYLYWFLQRPGQSPQLLIYRMSNLASGVPDRFSGSGSGTAFTLRISRVEAEDVGVYYCMQHLEYPLTFGAGTKLELK
As to B12, the absorbance at 450nm in assay [2] came to 2.25; in assay [3], 0.094.

B13: P-PR-B09W (antibody, V domains shown)
VH: QVQLQQPGSELVRPGASVKLSCKASGFTFTTFWVHWVKQRPGQGLEWIGNISPGGTSTNYDEKFKSKASLTVDTFSNTAYMQLSSLTSEDSAVYYCIRHSGNYFNAMDYWGQGTSVTVSS
VL: DIVMTQAAPSVPVTPGESVSISCRSSKSLLHSNGNTYLYWFLQRPGQSPQLLIYRMSNLASGVPDRFSGSGSGTAFTLRISRVEAEDVGVYYCMQHLEYPLTFGAGTKLELK
As for B13, the results for the absorbance at 450nm in assay [2] and in assay [3] were 2.51 and 0.141, respectively.

B14: P-PR-D01H (antibody, V domains shown)
VH: QVQLQQPGSELVRPGASVKLSCKASGFTFTTYWVHWVKQRPGQGLEWIGNISPGGGSTNYDEKFKSKASLTVDTFSNTAYMQLGSLTSEDSAVYYCIRHSGNYFNAMDYWGQGTTLTVSS
VL: DIVMTQAAPSVPVTPGESVSISCRSSKSLLHSNGNTYLYWFLQRPGQSPQLLIYRMSNLASGVPDRFSGSGSGTAFTLRISRVEAEDVGVYYCMQHLEYPLTFGAGTKLELK
B14: the figures for the absorbance at 450nm in assay [2] and in assay [3] were 2.37 and 0.118, respectively.
